Experiment: soluble on expression in E. coli; label from the status in PepcDB or PDB records

Row | Sequence | soluble on expression in E. coli
1 | MGSDKIHHHHHHMSAPLDIDQLQTFVAIADTGSFTKAADRVFKTQSAVSMQMRRLEERIGKPLFMKDGRGNRLTVEGDRLLNFARRMIRLNNEAIASFDDNRLEGTLRIGTPDDYADRYMPEIIVRFAKTHPNVELYIICEPSVDLAEKMAKGDLDIALVTHNPRARASDVVRTEPLCWVSSINHPLPENAPIPLAVGRRDCQWRQAACAALDATGKEYQILFTSWSSTVVAAAVLAGMAVSVLPESALRPGMKVLTLADGFPSLAPVQIGIMKRPGLSPSLSNAITNHITACLDNITPITVNDDLEGDLKGYPRYPRLRQSHMLPGW | not soluble
2 | MKISEIENTFKEKLSVSLKKQEDTIRRQSLAENQGKLEVMENMNRVLSEAIESLQSQHSKDTEIIKAGLRTKGDRVTYVDNLRVEKKALEETVSQLRSENDKLKKIIRGESTNKPVLRSRTTKP | not soluble
3 | MGSDKIHHHHHHMPRDLPPLNALRAFTAAAKRLSFTQAAEDLGVTQAAVSHQIRGLEDWLGVALFRRRNKQVVMTEAGQVYALAIGQALDEIAEATAALVRNDPRAGMLTISTMPSFAIKWLVQRLGGFINANPDIEVRLHTTRELVNFATEGIDVAIRMTREVGDDLHADLLLEEELFPVCSPALMRGIRPLRQPSDLSQHLLLQDVGISWVSWLDPAGALDVRPARGPGYLDSALAIQACIESQGVMLGRTVMVEDDLKAGRLVEPFTLRVPSPMKYWLVCPPGHLARPGVRAFREWILAEASKWTKARSSAHGVED | not soluble
4 | MGSDKIHHHHHHMDKLDFRSQDFSQTGKAMYELACELFPIPRSITGQGFRDSLEILNKTLGGGILKFHSIKSGTKVFDWIVPDEWNVKEAYIITPKGEKICDFKKHNLHLLNYSEAIDQEIELEELQDHLYSIEEMPDAIPYVTSYYKRRWGFCLTHNERKKLKKGKYKVYIDAKHDENGVLDYADFILPSTQNSKDEILISTYLCHPSMANNELSGPVVSIFLAKWLLGLKERRYNYRFVIIPETIGSIVYLSKHLECLKKHVKAGFVLSCLGDDHTYSLIHTVKENTLSDKVALHTLKNKENFKAFSFLDRGSDERQYNAPLVNLGIVGVCRTRYGDYDGYHNSKDDLNFISEKGLMGGLQSMQEMILNLEINAVYENTIVCEPNLGKRGLYHTLSTTNDIPLACNFLAYCDGENDIIDIANILNMQAYEFKELLEKIKFYGLVK | not soluble
5 | MNVLLMAYGTPYAPEEVEPYYTDIRRGRRPSEELLKELAERYEAIGKSPLNEITLAQAVRLQALLNLEAPPYPKRLLSPFPPRAPHGPARVYVGTKHWHPSIGEAVAAMHEDGVRRAVAIVAAPHYSLRSVAEYREKVDSALKALPEPIDFVWVESYEAHPGLIAAYARRLEEVIWRLKNPGKAAYVFTAHSIPLSAVEKGDPYPRQVEKTAELIAKKLALPRFHVAYQSAGRTPEPWLGPDINELLRTLKEEGYEEVAVQAVGFPADHLEVFYDLDLEAQATARELGLRLLRARSLNADLDYIQVLKDLVEAAWPR | soluble
6 | MGSDKIHHHHHHMSESCILFFVKYPEPGKVKTRLGEVVGNDKAAMLYRHFVQDMLQGLARLHADLHICYVPGDADLPEKFKAWLGPQHMFAAQQGLDLGERMKHAMQKAFDDGYDRVVLMGSDIPDYPCELVQKALNDLQHYDAAIGPAFDGGYYLIGFRKDSFCPDVFDGIRWGEADVYQPTVEKMRRARLEVLQLPDWNDVDTVWDLNVLYRTNKNSSFRRSSTYALLRENDALIRQYDIDLPGMAPVEKE | not soluble
7 | DYIVEKLNMTKMYDIFSQYLPPQVFINDDSVVHLVRNSIYYKKMRGKHDLVILAGDFQGTTQEAQYELSYQVLQIAKEIGVSMIYTLGGYSIGKIVDKPRVLGAVTDKNLVADLEKNGVVFPKGE | not soluble
8 | MSSGSTSTTPRAWLSGSVVTGKCCLLVIRKGQRPGVPFPAPCASGVAVTGRPPCATGGRGRTRPPTGVGEDTKDSCGKGIADETPRRHHGGPATRKAGRATGRSERGHSRGTRPAELMPIPRSPVVVALGAFEISNES | not soluble
9 | MGSDKIHHHHHHMSNKQHSTTITLPRGTLDLTYQTNAASGNNDLKESSRYQLEDLLDFAQRINPKRAFLFVSKVLGRHIPVAPSTMRDAFTDLANLVPDDLPEPILVIGMAETAVGLSAGVHQALQTRYPQALLLNSTRHAQHDNDNTNNLLTTFSEDHSHASQHLIYQSADKVTQAQLLASKTLIMVDDEASTGNTCVNVVTALRNAGLMQLQQVHLTTLVDWSLNQNQTDAKADDTIASRLPNIDFYRHHLLSGAWKWTDAPNPEPIIMPSVDTTEAGSQALAHTGHWGRFPTLDSTDGFANYLASFQTTFAIFDGQTAFDNAQLPQKILVLGSNEFVWLPFLLAEWLEQNADTVIDNQVIKFSALTRSPIALGGGISTMLSFHDNYGLGMTNFAYNVDPSNWDLIVLCVETSADGVDAMWQDLDNVLIVSPK | not soluble
10 | QLDGLDVYVAGKADVNFLFDRYISTKTELRSTTYSNYLYTWNHFIRDTFGKKKVRDVKYSDVLFFYTDLINNQGLQINTLETINTVLRPTFQLAVRDDIIRKNPVDGAYCEVKKRNGGARKTRRALTVDQQRKFMEYVAKNPFFYHWYPFFVFLLGTGCRIGEAIGIRWDDIDLENRIIDINHSLTYYQRADDSYKCEFRVSLPKTEAGNRRIPMMQQVYDVLQEEYERQKQEGFCVENVDGMTNFVFTNRFGMPHNPAAVNRAIKR | not soluble
11 | MRLDYALFSQHLVNSREKAKALVLKNQVLVNKMVVSKPSFIVKENDKIELIAEKLFVSRAGEKLGAFLETHFVDFKGKVVLDVGASKGGFSQVALLKGAKRVLCVDVGKMQLDESLKQDKRIECYEECDIRGFKTPETIDLALCDVSFISLYYILEAILPLSDEFLTLFKPQFEVGRGIKRNKKGVVVDKEAILNALENFKNHLKTKDFQILKIQESLVKGKNGNVEFFIHFKRA | not soluble
12 | PSSSQSEEKAPELPKPKKNRCFMCRKKVGLTGFDCRCGNLFCGLHRYSDKHNCPYDYKAEA | soluble
13 | MGSDKIHHHHHHAISVGNLTFSLPAEADFASKRVVNNNKSARLYRIAVSAIDRPGGSEVRSRPVDGELLFAPRQLVLQAGESEYFKFYYHGPRDNRERYYRVSFREIPTRNLTRRSPTGGEVSMEPVVVMDTILVVRPREVQFKWSFDKVAGTVSNTGNTWFKLLIKPGCDSTEEEGDAWYLRPGDVVRQPALRQPGNHYLVYNDKFIKISDTCPLKPRPAE | not soluble
14 | MKKARRRIDVDELFEGVRRGDRTLISRAITLLESTAPAHRVLAQELLVKLLPFSGKALRVGITGVPGVGKSTFIEALGMKLIGDGHKLAVLAIDPSSTKTRGSILGDKTRMAKLAREDNAFIRPSPSAGTLGGVAKATRESMVVFEAAGYDVILVETVGVGQSEVAVSQMVDCFTFLALAGAGDQLQGIKKGILEMADLVAINKADGPNLKNAKRAARELAAAMRMVRQENDLWHPPTITMSAVEHEGVDEFWEHVQNHNKAMLESGVFEHNRREQQVQWMWSMVHETLLQRLNTDPNVVEVKKLVEDQLRHAHITPTLAAERILKAFDHVTAD | not soluble
15 | MGSDKIHHHHHHMKPWQGISEFAAVAEQQSFTAAARQLRLSVAQVSRNIAALEHRLQMQLLYRSTRSVSLTEEGKLYLPHCQHLVASLRDADQAIQQRTQQPQGLIRITAPVYYGERFIAPLLNDFLHIYPECRLDFQLTNEQVDLIEGSYDVAIRLGQLGNPRLRARKLGSRRHFVVGSPAYFEEFGRPQDINALDAHRCFTGTVRQWRFQVEGKLETVRPESYLHCNNGLALRDAAMKGLGLAMLPDYYVTDSLANGQLEEVLADYRQPDDGIWALYPENRQVIPKVRVLLDYLSGNLSGNLSGKFNTGEIEN | not soluble
16 | GPGSMGTDKVMSEKLVLEKTKVKSLSDVQRLDMWGEGLTDISLVAKLPRLEVLALAANNVSSLKALQGCELLQELYLRKNKVANLREVTALRVLPTLSVLWLRDNPCAQHPYYREFVLHCCPGLRQLDGVEVTADERKAAAKRLTTKTLDEILGRSACADAASSPRPKKSSGAGSSPAKATDVTPSSTPGGVSDSTATIEERNASSRSVLFTTVAAQRAMLLSIVSLLSELTVESLELLQREVQERVEKQKEKLTKYVQENSQ | soluble
17 | MSLRPDMSRLTMIRFLTEIDYPPFNFTGADGNPAGFNVDLARALCDEIKITCTVQMRKFETLLDALASNRGDAIIASLAVTPQTRTKLDFTDPYYRTPARFVARKDAVMPEMRPEFLEGRKVGAVAGSAHEAYLKAMFTDAELHSYPNAEALRAALKRGEVDFIFGDAISLAFWINGTDSENCCAFSGAPFLESRYFGEGVGIAVRKGNDTLRQALNWALFRVWEKGQYTDLWLRYFSVSEGHHHHHH | soluble
18 | MSLAQISKYKRVVLKLSGEALAGEKGFGINPVIIKSVAEQVAEVAKMDCEIAVIVGGGNIWRGKTGSDLGMDRGTADYMGMLATVMNALALQDSLEQLDCDTRVLTSIEMKQVAEPYIRRRAIRHLEKKRVVIFAAGIGNPYFSTDTTAALRAAEVEADVILMGKNNVDGVYSADPKVNKDAVKYEHLTHIQMLQEGLQVMDSTASSFCMDNNIPLTVFSIMEEGNIKRAVMGEKIGTLITKEGHHHHHH | soluble
19 | MNYFPDEVIEHVFDFVTSHKDRNAISLVCKSWYKIERYSRQKVFIGNCYAINPERLLRRFPCLKSLTLKGKPHFADFNLVPHEWGGFVLPWIEALARSRVGLEELRLKRMVVTDESLELLSRSFVNFKSLVLVSCEGFTTDGLASIAANCRHLRDLDLQENEIDDHRGQWLSCFPDTCTTLVTLNFACLEGETNLVALERLVARSPNLKSLKLNRAVPLDALARLMACAPQIVDLGVGSYENDPDSESYLKLMAVIKKCTSLRSLSGFLEAAPHCLSAFHPICHNLTSLNLSYAAEIHGSHLIKLIQHCKKLQRLWILDSIGDKGLEVVASTCKELQELRVFPSDLLGGGNTAVTEEGLVAISAGCPKLHSILYFCQQMTNAALVTVAKNCPNFIRFRLCILEPNKPDHVTSQPLDEGFGAIVKACKSLRRLSLSGLLTDQVFLYIGMYANQLEMLSIAFAGDTDKGMLYVLNGCKKMKKLEIRDSPFGDTALLADVSKYETMRSLWMSSCEVTLSGCKRLAEKAPWLNVEIINENDNNRMEENGHEGRQKVDKLYLYRTVVGTRMDAPPFVWIL | not soluble
20 | MQIKILATSDMHGYIMPTSYSEKKMDLPFGTAKAATMLKKLRASAKGPVFQIENGDFIQGSPLSYYVRKAETHSVAAITKIINQMNYDVSILGNHEFNYGLDYLKETIASYQQPVLAANILGKDGQPYFGQPYVIIEKQGVKVAILGVTTQYIPHWEQPATVKDLTFKSVVETAAEYVPKLREEADLVVVAYHGGFEKDLETGEPTELLTGENEGYDLLEKVPGIDALVTGHQHREIATKLNGIPVIQPGFRGAFVGEITLEIEPMAKGYHVIGSDAAIHPVGNEQPDTEVLALTTALHDEVEEWLDQPVGNVEGDMTIQNPNAVRLKEHPYIEFINNVQMASSGTDISGTALFNNEGKGFNNQITMRDIITNYIYPNTLAVLRVTGQDLREALEQSATYFVLEKGQPIFNPKYVDPKPQYYNYDMYEGIEYTLDLRQPFGERVTKLNYHGKAVQAEDVLEIVTNQYRAVGGGNYQMFQPEKIIREIQIDMTELIAEYLKKHPIIQASTNDNFKVIW | not soluble
21 | MAEGLRERKKRQTRQYISDVATGLFLERGFEAVTVAEVADAANVSVNTVYNYFPAKEDLFLDRSKGVIDRLSRWVRGRRDGESAAGAVLRELRDEVESVSPRVGLMDGYATFMKVIQDSPALRSRMWAIGQEVLLNLEHTLREETGSADDDMTPTLMAGQINWLHGTVLAAIGGRMVAGGKPSEVSRDMLLLLDEMEELLSEKVLNYAVRGAL | not soluble
